Assay [1] concerns the target Human Galectin-3 protein (Acro Biosystems, GA3-H5129) (human) (UniProt P17931). The assay can be described thus: ELISA, hGal3 coated, competitor hTIM3 (FIG. 24).
Assay [2] has the same target. Put plainly: ELISA, hGal3 coated, antibody 3 ug/mL, competitor hTIM3.
Assay [3] shares this target. The assay can be described thus: SPR Biacore T200, antibody captured, Galectin-3 analyte. For orientation: Surface plasmon resonance follows binding to a sensor surface in real time, without labels.

Chain of Human Galectin-3 protein (Acro Biosystems, GA3-H5129) (human) (P17931 2-250): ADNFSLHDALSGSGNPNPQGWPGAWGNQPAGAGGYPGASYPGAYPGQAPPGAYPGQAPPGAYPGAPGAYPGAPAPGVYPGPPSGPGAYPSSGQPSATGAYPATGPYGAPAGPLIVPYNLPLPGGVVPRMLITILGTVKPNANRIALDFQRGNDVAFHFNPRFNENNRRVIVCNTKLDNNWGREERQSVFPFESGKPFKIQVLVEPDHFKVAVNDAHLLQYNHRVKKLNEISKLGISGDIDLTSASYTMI

B1: 9H2.2H1 (antibody, from a related filing, V domains shown)
VH: QVQLQQPGAELVGPGSSVKLSCKASGYTFTNYWIHWVKQRPLQGLEWIGNIDPSDSETHYNQKFKDKATLTVDKSSSTAYMQLSSLTSEDSAVYYCARHGYYDYWGQGTTLTVSS
VL: DIVMTQSHKFMSTSVGDRVSITCKASQDVSTAVAWYQQKPGQSPKLLIYWASTRHTGVPDRFTGSGSGTDYTLTISSVQAEDLALYYCQQHYTTPLTFGAGTKLELKR
Broadly, the Kd is a measure of binding affinity in units of concentration. Lower therefore signals tighter binding. In assay [1], B1 gave a reduction of TIM3-GAL3 binding of under 25%. The molecule further gave a GAL3-TIM3 Blocking @ 3 ug/mL in assay [2] of 6%. Moreover, the Kd in assay [3] turned out to be 18.4 nM.

(Values after US20260234269A1.)
